molecular target: human protein arginine deiminase 4 (PAD4) (human) (UniProt Q9UM07)
UniProt Q9UM07, sequence (Q9UM07 whole entry): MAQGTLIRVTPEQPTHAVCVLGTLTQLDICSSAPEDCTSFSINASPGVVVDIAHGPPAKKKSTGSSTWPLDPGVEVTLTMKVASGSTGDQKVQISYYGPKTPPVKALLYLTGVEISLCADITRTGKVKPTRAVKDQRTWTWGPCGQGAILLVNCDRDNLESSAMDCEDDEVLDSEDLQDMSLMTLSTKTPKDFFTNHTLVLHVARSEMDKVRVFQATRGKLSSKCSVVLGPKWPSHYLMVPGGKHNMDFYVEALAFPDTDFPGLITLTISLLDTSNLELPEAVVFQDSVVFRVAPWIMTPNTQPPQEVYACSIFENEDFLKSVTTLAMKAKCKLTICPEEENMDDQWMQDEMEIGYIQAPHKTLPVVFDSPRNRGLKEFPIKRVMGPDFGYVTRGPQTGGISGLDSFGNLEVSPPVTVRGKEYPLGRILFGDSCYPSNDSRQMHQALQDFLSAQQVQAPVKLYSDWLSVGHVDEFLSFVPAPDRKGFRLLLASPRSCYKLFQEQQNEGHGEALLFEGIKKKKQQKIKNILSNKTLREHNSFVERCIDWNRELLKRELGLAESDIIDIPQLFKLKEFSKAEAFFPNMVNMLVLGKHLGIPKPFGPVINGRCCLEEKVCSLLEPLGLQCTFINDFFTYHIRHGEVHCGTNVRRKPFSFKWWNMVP

K d(app): hTRX concentration (0-10 uM) giving half-maximal activation of PAD4 (citrullination of BAEE) [nM]	Binder
1170	C35S-hTRX (enzyme) MVKQIESKTAFQEALDAAGDKLVVVDFSATWCGPSKMIKPFFHSLSEKYSNVIFLEVDVDDCQDVASECEVKCMPTFQFFKKGQKVGEFSGANKEKLEATINELV
440	C32/35S-hTRX (enzyme) MVKQIESKTAFQEALDAAGDKLVVVDFSATWSGPSKMIKPFFHSLSEKYSNVIFLEVDVDDCQDVASECEVKCMPTFQFFKKGQKVGEFSGANKEKLEATINELV
780	C73S-hTRX (enzyme) MVKQIESKTAFQEALDAAGDKLVVVDFSATWCGPCKMIKPFFHSLSEKYSNVIFLEVDVDDCQDVASECEVKSMPTFQFFKKGQKVGEFSGANKEKLEATINELV
1140	C62S-hTRX (enzyme) MVKQIESKTAFQEALDAAGDKLVVVDFSATWCGPCKMIKPFFHSLSEKYSNVIFLEVDVDDSQDVASECEVKCMPTFQFFKKGQKVGEFSGANKEKLEATINELV

Continued, binder first:

Binder	K d(app): hTRX concentration (0-10 uM) giving half-maximal activation of PAD4 (citrullination of BAEE) [nM]
C69S-hTRX (enzyme) MVKQIESKTAFQEALDAAGDKLVVVDFSATWCGPCKMIKPFFHSLSEKYSNVIFLEVDVDDCQDVASESEVKCMPTFQFFKKGQKVGEFSGANKEKLEATINELV	1380
C62/69S-hTRX (enzyme) MVKQIESKTAFQEALDAAGDKLVVVDFSATWCGPCKMIKPFFHSLSEKYSNVIFLEVDVDDSQDVASESEVKCMPTFQFFKKGQKVGEFSGANKEKLEATINELV	610
IAA-treated hTRX (thiol-free variant) (enzyme, all cysteine residues chemically modified with iodoacetamide) MVKQIESKTAFQEALDAAGDKLVVVDFSATWCGPCKMIKPFFHSLSEKYSNVIFLEVDVDDCQDVASECEVKCMPTFQFFKKGQKVGEFSGANKEKLEATINELV	620

Source: paper PMC6396667
